Experimental data as given in patent US20240301061A1 (BEIGENE SWITZERLAND, published 2024).

B1: anti-CLDN6 chimeric BG87P (antibody, V domains shown)
VH: QIQLQQSGPELVKPGASVKISCKASGYSFTDYHINWVKQRPGQGLEWIGWIYPGSGYTKYNEKFKVKATLTVDTSSSTAYMHLTSLTSEDSAVYFCARSGIYHYVSSYYFDHWGQGTTLTVSS
VL: DIVMTQSHTFMSTSVGDRVSITCKASQDVGTAVAWYQQKPGQSPKLLIYWASTRHTGVPDRFTGSGSGTDFTLTISNVQSEDLADYFCQQYSSYTFGGGTKLEIK
notes: expressed in HEK293T; also called chBG87P; ChBG87P
B2: BG87P-21 (antibody, V domains shown)
VH: QVQLVQSGAEVKKPGASVKVSCKASGYSFTDYHINWVRQAPGQRLEWMGWIYPGSGYTKYNEKFKGRVTITRDTSASTAYMELSSLRSEDTAVYYCARSGIYHYVSSYYFDHWGKGTTVTVSS
VL: DIQMTQSPSTLSASVGDRVTITCKASQDVGTAVAWYQQKPGKAPKLLIYWASTRHTGVPSRFSGSGSGTEFTLTISSLQPDDFATYYCQQYSSYTFGGGTKVEIK
notes: 2nd round humanized variant
B3: BG87P-22 (antibody, V domains shown)
VH: QVQLVQSGAEVKKPGASVKVSCKASGYSFTDYHINWVRQAPGQRLEWMGWIYPGSGYTKYNEKFKGRVTITRDTSASTAYMELSSLRSEDTAVYFCARSGIYHYVSSYYFDHWGKGTTVTVSS
VL: DIQMTQSPSTLSASVGDRVTITCKASQDVGTAVAWYQQKPGKAPKLLIYWASTRHTGVPSRFSGSGSGTEFTLTISSLQPDDFATYYCQQYSSYTFGGGTKVEIK

What was measured:
human claudin 6 (CLDN6) [1] = target: T1, human claudin 6 (CLDN6) (human, UniProt P56747 1-220); assay: flow cytometry, HEK293-hCLDN6 cells; ratio to chBG87P
T1 construct: also called human CLDN6; hCLDN6
T1 sequence: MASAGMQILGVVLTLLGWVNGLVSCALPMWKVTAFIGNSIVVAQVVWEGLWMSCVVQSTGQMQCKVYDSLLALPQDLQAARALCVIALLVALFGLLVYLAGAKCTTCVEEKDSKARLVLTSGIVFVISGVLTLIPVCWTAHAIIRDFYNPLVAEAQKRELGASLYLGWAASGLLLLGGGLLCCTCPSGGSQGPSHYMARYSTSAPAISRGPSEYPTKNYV

human claudin 6 (CLDN6) [2] = target: T1, human claudin 6 (CLDN6); assay: flow cytometry, PA-1 cells; ratio to chBG87P
Procedure: (§1) For affinity determination, CLDN6 over-expressing HEK293T cells and cancer cell line PA-1 which express high levels of human CLDN6 were used to evaluate the binding activity of BG87P related engineering variants. Live cells were seeded in 96-well plate, and were incubated with a series of dilutions of chBG87P and engineered variants thereof. Goat anti-human IgG was used as second antibody to detect antibody binding to the cell surface. EC50 values for dose-dependent binding to CLDN6 expressing cell lines were determined by fitting the dose-response data to the four-parameter logistic model with GraphPad Prism. Cell binding activity of 1st round of BG87P humanization variants against HEK293T/human CLDN6 were compared to chBG87P and shown in FIG. 1A.

human claudin 6 (CLDN6) [3] = target: T1, human claudin 6 (CLDN6); assay: flow cytometry, HEK293T-hCLDN6 cells; ratio to chBG87P
cyno CLDN6 = target: T2, cyno CLDN6 (cyno); assay: flow cytometry, HEK293T-cyno-CLDN6 cells; ratio to chBG87P
T2 construct: whole, on cells; also called cynomolgus CLDN6

human claudin 6 (CLDN6) [4] = target: T1, human claudin 6 (CLDN6); assay: flow cytometry, HEK293T-human CLDN6 cells; ratio to chBG87P
Procedure: as §1

human claudin 6 (CLDN6) [5] = target: T1, human claudin 6 (CLDN6); assay: flow cytometry, PA-1 cells
Procedure: as §1

Binder	FACS-Ec50 ratio to BG87P (human claudin 6 (CLDN6) [1])	Emax ratio to BG87P (human claudin 6 (CLDN6) [2])	FACS Emax ratio to BG87P (human claudin 6 (CLDN6) [3])	FACS Emax ratio to BG87P (cyno CLDN6)	Emax ratio to BG87P (human claudin 6 (CLDN6) [4])	Top MFI Mean (human claudin 6 (CLDN6) [5])
B1	1	1	1	1	1	–
B2	0.91	0.61	0.66	0.8	0.78	76500 MFI
B3	–	0.54	–	–	0.71	67800 MFI
